Here are results for 6 molecules from US20100081612A1 (GENERAL HOSPITAL, published 2010).

Where no end group is shown, it is not given here. [ ]: non-standard residue; d: D form. Cha = N[C@@H](CC1CCCCC1)C(=O)O

What is called IC50 is the point on the concentration scale where inhibition reaches its midpoint. A low value points to inhibition by little substance.

The labels stand for the following.
T1: rat PTHR endogenously expressed in ROS 17/2.8 cells (rat, UniProt P25961 27-591)
T1 sequence (looked up): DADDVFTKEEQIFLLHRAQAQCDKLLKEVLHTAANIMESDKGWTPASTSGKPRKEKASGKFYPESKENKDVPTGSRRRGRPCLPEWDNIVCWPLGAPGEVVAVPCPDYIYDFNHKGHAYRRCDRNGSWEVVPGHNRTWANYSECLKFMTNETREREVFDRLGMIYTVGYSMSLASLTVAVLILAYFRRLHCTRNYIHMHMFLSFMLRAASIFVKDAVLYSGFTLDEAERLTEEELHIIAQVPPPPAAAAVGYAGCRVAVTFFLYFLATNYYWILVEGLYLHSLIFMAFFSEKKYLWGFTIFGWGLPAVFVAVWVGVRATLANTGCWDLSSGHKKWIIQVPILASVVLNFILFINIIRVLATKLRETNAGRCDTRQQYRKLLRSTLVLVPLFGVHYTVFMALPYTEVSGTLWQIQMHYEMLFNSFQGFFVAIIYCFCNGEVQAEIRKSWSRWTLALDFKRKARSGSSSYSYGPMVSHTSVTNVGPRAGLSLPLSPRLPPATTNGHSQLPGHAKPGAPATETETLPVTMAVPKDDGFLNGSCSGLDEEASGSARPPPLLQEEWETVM

T2: wild-type human PTHR (human, UniProt Q03431 27-593)
T2 construct: whole, on cells; also called PTHR-WT; intact PTHR
T2 sequence (looked up): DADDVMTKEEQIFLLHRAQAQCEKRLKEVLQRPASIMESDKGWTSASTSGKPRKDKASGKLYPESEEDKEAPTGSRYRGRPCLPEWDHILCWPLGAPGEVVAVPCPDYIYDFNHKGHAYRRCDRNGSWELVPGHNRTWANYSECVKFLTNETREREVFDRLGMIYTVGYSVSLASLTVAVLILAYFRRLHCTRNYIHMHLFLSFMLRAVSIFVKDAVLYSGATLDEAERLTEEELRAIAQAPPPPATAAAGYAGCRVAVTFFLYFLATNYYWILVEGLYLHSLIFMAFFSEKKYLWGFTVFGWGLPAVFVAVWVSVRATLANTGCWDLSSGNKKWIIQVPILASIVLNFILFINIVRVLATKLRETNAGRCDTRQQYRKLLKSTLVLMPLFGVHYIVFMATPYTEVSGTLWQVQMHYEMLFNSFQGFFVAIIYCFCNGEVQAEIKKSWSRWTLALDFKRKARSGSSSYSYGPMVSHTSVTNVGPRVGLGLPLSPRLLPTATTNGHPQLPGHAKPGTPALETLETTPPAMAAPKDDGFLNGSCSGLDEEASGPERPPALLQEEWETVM

B1: [Ala^1,Arg^19]hPTH(1-31)NH2 Arg^20→Cha (peptide)
peptide: AVSEIQLMHNLGKHLNSMR[Cha]VEWLRKKLQDV-NH2
modifications: N-terminus assumed
SMILES: CC[C@H](C)[C@H](NC(=O)[C@H](CCC(=O)O)NC(=O)[C@H](CO)NC(=O)[C@@H](NC(=O)[C@H](C)N)C(C)C)C(=O)N[C@@H](CCC(N)=O)C(=O)N[C@@H](CC(C)C)C(=O)N[C@@H](CCSC)C(=O)N[C@@H](Cc1c[nH]cn1)C(=O)N[C@@H](CC(N)=O)C(=O)N[C@@H](CC(C)C)C(=O)NCC(=O)N[C@@H](CCCCN)C(=O)N[C@@H](Cc1c[nH]cn1)C(=O)N[C@@H](CC(C)C)C(=O)N[C@@H](CC(N)=O)C(=O)N[C@@H](CO)C(=O)N[C@@H](CCSC)C(=O)N[C@@H](CCCNC(=N)N)C(=O)N[C@@H](CC1CCCCC1)C(=O)N[C@H](C(=O)N[C@@H](CCC(=O)O)C(=O)N[C@@H](Cc1c[nH]c2ccccc12)C(=O)N[C@@H](CC(C)C)C(=O)N[C@@H](CCCNC(=N)N)C(=O)N[C@@H](CCCCN)C(=O)N[C@@H](CCCCN)C(=O)N[C@@H](CC(C)C)C(=O)N[C@@H](CCC(N)=O)C(=O)N[C@@H](CC(=O)O)C(=O)N[C@H](C(N)=O)C(C)C)C(C)C
notes: also called Cha^20 analog
B2: [Ala^1,Arg^19]hPTH(1-31)NH2 (peptide)
peptide: AVSEIQLMHNLGKHLNSMRRVEWLRKKLQDV-NH2
notes: also called [Ala^1,Arg^19]PTH(1-31)NH2; [Ala^1,Arg^19]PTH(1-31)

The first experiment has as its target T1, rat PTHR endogenously expressed in ROS …. The experiment can be described thus: cell-based or functional assay.
Take AVSEIQLMHNLGKHLNSMREVEWLRKKLQDV-NH2 [[Ala^1,Arg^19]hPTH(1-31)NH2 Arg^20→Glu]: the “cAMP EC50, ROS 17/2.8 cells” value was found to be 59 nM.

As for AVSEIQLMHNLGKHLNSMRRVEWERKKLQDV-NH2 [[Ala^1,Arg^19]hPTH(1-31)NH2 Leu^24→Glu], the “cAMP EC50, ROS 17/2.8 cells” value was 250 nM.

Take B1: the “cAMP EC50, ROS 17/2.8 cells” value came to 7.5 nM.

B2: the “cAMP EC50, ROS 17/2.8 cells” value worked out at 0.78 nM.

Turning to AVSEIQLMHNLGKHLNSMRRVEELRKKLQDV-NH2 [[Ala^1,Arg^19]hPTH(1-31)NH2 Trp^23→Glu], the “cAMP EC50, ROS 17/2.8 cells” value amounted to 4 nM.

For the molecule AVSEIQLMHNLGKHLNSMRRVEWLRKKEQDV-NH2 [[Ala^1,Arg^19]hPTH(1-31)NH2 Leu^28→Glu], the “cAMP EC50, ROS 17/2.8 cells” value amounted to 11 nM.

In another experiment the target is T2, wild-type human PTHR. Put plainly: competition binding, HKRK-B7 cells, 125I-PTH(1-34) tracer.
For the molecule AVSEIQLMHNLGKHLNSMREVEWLRKKLQDV-NH2 [[Ala^1,Arg^19]hPTH(1-31)NH2 Arg^20→Glu], the “fold reduction in binding affinity vs [Ala^1,Arg^19]PTH(1-31)NH2” value (from here on “fold reduction in binding affinity”) is ≥ 150 fold.

In the case of AVSEIQLMHNLGKHLNSMRRVEWERKKLQDV-NH2 [[Ala^1,Arg^19]hPTH(1-31)NH2 Leu^24→Glu], the “fold reduction in binding affinity” value is ≥ 150 fold.

Regarding B1, the “fold reduction in binding affinity” value was determined as 120 fold.

In the next experiment the target is T2, wild-type human PTHR. Described as above. The source holds these as a separate data set. In short, it runs like this:
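Intact HKRK-B7 cells stably expressing hPTHR incubated 4 h at 15° C with ¹²⁵I-PTH(1-34) tracer and unlabeled peptide (3×10⁻⁹ to 1×10⁻⁵ M). Nonspecific binding defined with 1×10⁻⁶ M PTH(1-31)NH₂. Bound activity counted after lysis and expressed as % specific binding without competitor; values in nM, mean ± s.e.m.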
For the molecule AVSEIQLMHNLGKHLNSMREVEWLRKKLQDV-NH2 [[Ala^1,Arg^19]hPTH(1-31)NH2 Arg^20→Glu], the IC50 was > 10000 nM.

On to AVSEIQLMHNLGKHLNSMRRVEWERKKLQDV-NH2 [[Ala^1,Arg^19]hPTH(1-31)NH2 Leu^24→Glu], for which the concentration for half-maximal inhibition (IC50) is > 10000 nM.

Take B1: the IC50 was found to be 4740 nM.

For the molecule B2, the IC50 came out at 38 nM.

For AVSEIQLMHNLGKHLNSMRRVEELRKKLQDV-NH2 [[Ala^1,Arg^19]hPTH(1-31)NH2 Trp^23→Glu], the IC50 was 6040 nM.

For the molecule AVSEIQLMHNLGKHLNSMRRVEWLRKKEQDV-NH2 [[Ala^1,Arg^19]hPTH(1-31)NH2 Leu^28→Glu], the IC50 amounted to 10400 nM.

A further experiment has as its target T1, rat PTHR endogenously expressed in ROS …. The experiment can be described thus: competition binding, ROS 17/2.8 cells, 125I-PTH(1-34) tracer. As to the method:
Receptor binding—Binding to the wild-type human PTHR in intact HKRK-B7 cells and ROS 17/2.8 cells was assessed using ¹²⁵I-PTH(1-34) as a tracer radioligand, as described (Shimizu, M., (2001) Endocrinology 142:3068-3074). In brief, the cells in 24-well plates (about 500,000 cells per well) were incubated in binding buffer containing radioligand (about 100,000 cpm per well) with or without unlabeled peptide ligand (3×10⁻⁹ to 1×10⁻⁵ M) for four hours at 15° C. The binding mixture was then removed by aspiration, the cells were rinsed three times with binding buffer, lysed in 1 M NaOH, and the entire lysate was counted for gamma-irradiation in a gamma counter. Binding to PTHR-delNt in COS-7 cell membranes was assessed in 96-well, vacuum filtration plates (Multiscreen-Durapore HV, […], Millipore Corp., Millford, Mass.) using ¹²⁵I-[Aib^{1,3},M]PTH(1-15)NH₂ as a tracer radioligand, as described (Dean, T., (2006) Mol Endocrinol 20:931-942). In brief, cell membranes (20 μg/well) were incubated in membrane binding buffer containing radioligand (30,000 cpm/well) with or without unlabeled peptide ligand (3×10⁻⁹ to 1×10⁻⁵ M) for 90 minutes at 21° C. The plates were then subject to rapid vacuum filtration, the filters were washed once with buffer, detached from the plate and counted for gamma-irradiation in a gamma counter. Non-specific binding was defined as the binding observed in the presence of 1×10⁻⁶ M PTH(1-31)NH₂ for HKRK-B7 and ROS 17/2.8 cells, and 1×10⁻⁶ M [Aib^{1,3},M]PTH(1-15)NH₂ for PTHR-delNt. Specifically bound radioactivity was calculated as a percentage of the radioactivity specifically bound in the absence of competing ligand.
Effects on cAMP and IP signaling—Selected analogs of [Ala¹,Arg¹⁹]hPTH(1-31)NH₂ with substitutions that markedly impaired binding to HKRK-B7 cells were assessed for their capacity to bind to the PTHR in ROS 17/2.8 cells and to stimulate cAMP-signaling responses in these cells. These bone-derived cells endogenously express the rat PTHR at a more physiological level than is found in HKRK-B7 cells (approximately 80,000 PTHRs per cell vs. 950,000 PTHRs per cell) and, have generally been found (data not shown) to yield closer correlations between PTH analog binding affinity and cAMP-signaling potency than do HKRK-B7 cells, presumably due to their lower PTHR expression level.
AVSEIQLMHNLGKHLNSMREVEWLRKKLQDV-NH2 [[Ala^1,Arg^19]hPTH(1-31)NH2 Arg^20→Glu] had an IC50 of 5800 nM. In other words, the single-digit micromolar range.

Regarding AVSEIQLMHNLGKHLNSMRRVEWERKKLQDV-NH2 [[Ala^1,Arg^19]hPTH(1-31)NH2 Leu^24→Glu], the IC50 was 29000 nM.

With B1, the IC50 was found to be 290 nM.

B2 yielded an IC50 of 1.6 nM.

For the molecule AVSEIQLMHNLGKHLNSMRRVEELRKKLQDV-NH2 [[Ala^1,Arg^19]hPTH(1-31)NH2 Trp^23→Glu], the IC50 amounted to 220 nM.

Molecule AVSEIQLMHNLGKHLNSMRRVEWLRKKEQDV-NH2 [[Ala^1,Arg^19]hPTH(1-31)NH2 Leu^28→Glu] came in with an IC50 of 3100 nM.

Another experiment deals with PTHR-delNt (human) (UniProt Q03431). The experiment can be described thus: competition binding, COS-7 membranes, 125I-[Aib1,3,M]PTH(1-15) tracer.
For the molecule AVSEIQLMHNLGKHLNSMREVEWLRKKLQDV-NH2 [[Ala^1,Arg^19]hPTH(1-31)NH2 Arg^20→Glu], the IC50 is 776 nM and the fold reduction in binding affinity vs [Ala^1,Arg^19]PTH(1-31)NH2 was < 3 fold.

With AVSEIQLMHNLGKHLNSMRRVEWERKKLQDV-NH2 [[Ala^1,Arg^19]hPTH(1-31)NH2 Leu^24→Glu], the IC50 came out at 1040 nM and the fold reduction in binding affinity vs [Ala^1,Arg^19]PTH(1-31)NH2 was < 3 fold.

Take B1: the IC50 amounted to 632 nM and the fold change in binding affinity vs [Ala^1,Arg^19]PTH(1-31)NH2 is < 3 fold.

The molecule B2 gave a 50% inhibitory concentration (IC50) of 397 nM.

On to AVSEIQLMHNLGKHLNSMRRVEELRKKLQDV-NH2 [[Ala^1,Arg^19]hPTH(1-31)NH2 Trp^23→Glu], for which the IC50 is 434 nM and the fold reduction in binding affinity vs [Ala^1,Arg^19]PTH(1-31)NH2 was < 3 fold.

As to AVSEIQLMHNLGKHLNSMRRVEWLRKKEQDV-NH2 [[Ala^1,Arg^19]hPTH(1-31)NH2 Leu^28→Glu], the half-inhibitory concentration (IC50) was found to be 974 nM and the fold reduction in binding affinity vs [Ala^1,Arg^19]PTH(1-31)NH2 is < 3 fold.
